Reference: the supplement of paper PMC9732359
± gives the uncertainty stated by the source.

Assay: protein stability index of a GFP-peptide fusion (yeast GPS) (PSI 1-4); higher = more stable; sorted into four equal gates, so the index is relative within each strain
Outline: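 The protein stability index of a peptide was calculated by multiplying its read frequency in each gate by that gate's number and adding the products. The peptides were tiled 17-residue stretches of yeast proteins, fused downstream of GFP on a Cherry-expressing plasmid and carried in yeast as a pooled library. Mid-log cultures in leucine-free medium were sorted into four equal gates by GFP/Cherry ratio, and each gate's plasmids were PCR-amplified and Illumina-sequenced.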

Row | Sequence | protein stability index (doa10∆) | protein stability index (pdr5∆) | protein stability index (ubr1∆) | protein stability index (san1∆)
1 | LRQFKTCPVEVIKRLEA [BRR2] | 2.94 ± 0.18 | 3.23 ± 0.17 | 2.81 ± 0.1 | –
2 | QKIVVVRAEELNISGEF [RPL16A] | 3.64 ± 0.2 | 3.06 ± 0.21 | 3.28 ± 0.19 | 3.17 ± 0.16
3 | EYSRDCFCEDHCDKCSV [RPB3] | 3.13 ± 0.19 | 3.51 ± 0.15 | 2.98 ± 0.2 | 3.24 ± 0.18
4 | DPYELKGEVVLVNIRTQ [ITC1] | 1.57 ± 0.098 | 2.66 ± 0.14 | 2.3 ± 0.099 | 2.45 ± 0.11
5 | YPPMPFDGFLFGSRVMI [FAS1] | 2.64 ± 0.075 | 2.75 ± 0.071 | 2.54 ± 0.048 | 2.53 ± 0.11
6 | KIELIKNNLLIPDLSIQ [RPN12] | 2.75 ± 0.055 | 2.23 ± 0.042 | 2.06 ± 0.036 | 2.66 ± 0.046
7 | MLKPNIIFQQLLFWTDP [YCG1] | 2.42 ± 0.099 | 2.28 ± 0.076 | 1.68 ± 0.12 | 1.21 ± 0.093
8 | LNDENSDDYDNEGAASS [SMC1] | 3.39 ± 0.25 | – | – | –
9 | DKLELYVLRNVLRIPEE [MTW1] | 3 ± 0.13 | 2.45 ± 0.084 | 3.41 ± 0.12 | 2.94 ± 0.076
10 | VNEENDSYIALYEKDIV [RET1] | 2.6 ± 0.064 | 2.56 ± 0.076 | 2.68 ± 0.07 | 2.69 ± 0.061
11 | DSLNQLEIRNKICSSEM [RGR1] | 2.24 ± 0.22 | 3.11 ± 0.11 | 2.61 ± 0.22 | 2.65 ± 0.14
12 | LMYQIKKECALLISYGV [SRB4] | 1.9 ± 0.12 | 3.09 ± 0.16 | 1.93 ± 0.15 | 2.12 ± 0.19
13 | LIELKSDLLVAPPLENE [YML103C/NUP188] | 2.41 ± 0.046 | 2.18 ± 0.052 | 2.19 ± 0.05 | 2.31 ± 0.077
14 | MLDKLMVTSIRSTPNYI [MED6] | 2.4 ± 0.064 | 2.52 ± 0.061 | 2.66 ± 0.05 | 2.43 ± 0.098
15 | FNKTTNIDINNEDENIQ [YJL041W/NSP1] | 3.19 ± 0.074 | 3.31 ± 0.082 | 3.2 ± 0.059 | 3.09 ± 0.056
16 | ALQQQQQQQQNQQQQNQ [SWI1] | 2.77 ± 0.062 | 2.97 ± 0.068 | 2.78 ± 0.079 | 2.75 ± 0.047
17 | NHKSKDNNNGDDDDEDD [SKP1] | 3.13 ± 0.075 | 3.14 ± 0.069 | 3.14 ± 0.049 | 3.16 ± 0.05
18 | SSGVLSSNIAGTNPLSS [SSN2] | 3.41 ± 0.13 | 2.9 ± 0.12 | 3.31 ± 0.088 | 2.83 ± 0.19
19 | LNEFFTRELAEEGYSGV [RPS3] | 2.5 ± 0.22 | 1.82 ± 0.12 | 1.68 ± 0.11 | 1.44 ± 0.15
20 | ILYTSKIVFILDSDSEN [RRI2] | 1.76 ± 0.065 | 1.88 ± 0.047 | 1.71 ± 0.037 | 1.43 ± 0.09
21 | VSKPAFSFGAKANEKKE [YJL041W/NSP1] | 3.07 ± 0.15 | 2.78 ± 0.24 | 2.94 ± 0.16 | 2.95 ± 0.11
22 | ASGKEVEKVATAVLSTT [RPN2] | 2.76 ± 0.14 | 3.47 ± 0.17 | – | –
23 | KVKNFGVWVRYDSRSGT [RPL20A] | – | 2.74 ± 0.1 | 2.55 ± 0.24 | –
24 | LEKKFQDRHVIFLAERR [RPS7A] | 2.53 ± 0.23 | 2.9 ± 0.12 | 2.71 ± 0.11 | 2.86 ± 0.27
25 | INGEPSIHVNRVERSSR [RRI1] | 2.99 ± 0.078 | 3.01 ± 0.067 | 3.1 ± 0.051 | 3.1 ± 0.053
26 | SQISKAEMEADSLASEL [SMC4] | 2.75 ± 0.08 | 3.31 ± 0.16 | 2.82 ± 0.16 | 3.27 ± 0.071
27 | VKVNHNEKRYATASAIA [RPL4A] | 2.29 ± 0.1 | 2.62 ± 0.11 | 2.18 ± 0.067 | 2.1 ± 0.12

Row | Sequence | protein stability index (doa10∆) | protein stability index (pdr5∆) | protein stability index (ubr1∆) | protein stability index (san1∆)
28 | LMDDMSDISDLDDLGFL [RPN3] | 1.77 ± 0.062 | 1.81 ± 0.059 | 1.77 ± 0.04 | 1.92 ± 0.091
29 | RAVFLFRCKETHSYNFM [RPC82] | 2.19 ± 0.058 | 2.02 ± 0.084 | 2.47 ± 0.063 | 1.98 ± 0.091
30 | MPFNDQGIVPDIIMNPH [RET1] | 2.71 ± 0.075 | 2.92 ± 0.059 | 3.09 ± 0.042 | 2.87 ± 0.052
31 | NNVSFNAKDIQIPVYDT [FAS1] | 2.36 ± 0.041 | 2.49 ± 0.046 | 2.64 ± 0.041 | 2.18 ± 0.048
32 | VAQPDSLRETNTTDPLG [SIR2] | 3.09 ± 0.17 | 3.45 ± 0.17 | 3.08 ± 0.14 | 2.41 ± 0.12
33 | EDEGEERESSGAKDAEK [RPC17] | 2.93 ± 0.18 | 3.38 ± 0.28 | 3.65 ± 0.16 | –
34 | EDDLVGVVQMVTDNKTP [TAF14] | 2.72 ± 0.15 | 2.52 ± 0.19 | – | 2.84 ± 0.091
35 | NDSENNSSEEDKKKGQN [ITC1] | 2.24 ± 0.073 | 2.53 ± 0.11 | 2.86 ± 0.1 | 2.68 ± 0.12
36 | LHTARKILVLTGAGVST [SIR2] | 2.06 ± 0.052 | 1.56 ± 0.054 | 2.29 ± 0.059 | 2.33 ± 0.082
37 | KRTICKKCHRLLWTPKK [RPR2] | 2.42 ± 0.051 | 2.45 ± 0.05 | 2.26 ± 0.037 | 2.81 ± 0.048
38 | NKRLDVIDGKLPFMQNA [YDL088C/ASM4] | 2.84 ± 0.053 | 2.79 ± 0.053 | 2.19 ± 0.044 | 2.44 ± 0.052
39 | NFADKYDEVKKHWGGGI [RPL8A] | 2.66 ± 0.21 | 3.2 ± 0.12 | 3.05 ± 0.14 | 2.97 ± 0.099
40 | RKNYMHVKNFGFANSLT [YML031W/NDC1] | 1.18 ± 0.11 | 1.9 ± 0.11 | 2.85 ± 0.063 | 2.3 ± 0.14
41 | YFNQLKPYYFSNNHKLS [RPN12] | 1.17 ± 0.057 | 1.32 ± 0.077 | 1.24 ± 0.04 | 1.19 ± 0.13
42 | LISLKLLTFEVTQNVLG [SRB8] | 1.73 ± 0.078 | 1.46 ± 0.072 | 1.69 ± 0.084 | 1.28 ± 0.25
43 | DDLKKDHIAIDWEDEEK [DSN1] | 2.73 ± 0.083 | 3.06 ± 0.072 | 2.82 ± 0.063 | 3.07 ± 0.065
44 | VLVLRGTLEGHNGWVTS [ASC1] | 2.75 ± 0.15 | 2.1 ± 0.14 | 2.76 ± 0.18 | 2.1 ± 0.15
45 | NLTSEIEDLRADINSNR [YOR098C/NUP1] | 2.98 ± 0.27 | 3.07 ± 0.12 | 3.03 ± 0.084 | 2.83 ± 0.12
46 | QLGYGKFLILNENPINK [NUT1] | 2.92 ± 0.12 | 2.53 ± 0.12 | 2.84 ± 0.13 | 2.71 ± 0.077
47 | DAGSNQYYVTQHDKMVD [SWI1] | 3.04 ± 0.058 | 2.99 ± 0.046 | 2.74 ± 0.045 | 2.95 ± 0.068
48 | LSIPGKSTPEGTLWAHV [SNU114] | 2.91 ± 0.065 | 3.09 ± 0.064 | 3.03 ± 0.04 | 2.9 ± 0.059
49 | EINWRHASFLCSFITQD [FAS1] | 2.1 ± 0.15 | 2.42 ± 0.12 | 2.14 ± 0.15 | 2.17 ± 0.21
50 | DLDLNEQVRKMYQEWED [NSL1] | 2.97 ± 0.13 | 3.39 ± 0.11 | 2.92 ± 0.11 | 3.26 ± 0.071
51 | TRTVITDWDPQFNAITG [SMC2] | 2.96 ± 0.099 | 2.99 ± 0.083 | 2.76 ± 0.098 | 2.67 ± 0.1
52 | LEHIDSKSEFAHRIMLT [FAS2] | 2.17 ± 0.063 | 2.19 ± 0.069 | 2.25 ± 0.063 | 2.72 ± 0.075
53 | SGLMVILYTSKIVFILD [RRI2] | 1.76 ± 0.09 | 1.81 ± 0.049 | 1.69 ± 0.037 | 1.44 ± 0.094
